PMC9769804

Tested on: SaraC (Stereum hirsutum FP-91666)
Assay: SPR
Details: S-adenosylmethionine (16 mM, protein pre-incubation), SPR Biacore T200, CM5 anti-His capture, 1x PBS with 5% DMSO pH 7.5 (protein/SAM mix), oligos in 1x PBS, 25 C, 5 uL/min, analyte 0.25-4 uM (Fig. 1 legend …)

GATTCCTTC [Oligo7291]
Kd (5mC at position 5): 662 nM

CGATCGGATTTGACGGTT [Oligo5564]
Kd (two methyl groups, printed mG at positions 7 and 12, text calls these oligos 5mC or 6mA, so methylated base is ambiguous): 821 nM

ATCCAGAGCGAGCCTATTACG [Oligo1309]
Kd (called weak, 6mA at positions 7 and 11): 1670 nM
